Paper PMC1964878

Key:
[1] = system: O=C(O)[C@@H]1C[C@@H](O)CN1; assay: purified protein; conditions: Tris 20 mM/EDTA 1 mM, pH 8-9 (optimum buffer), 37 C, 10-160 mM substrate
[2] = system: O=C(O)[C@H]1C[C@@H](O)CN1; assay: purified protein; conditions: Tris 20 mM/EDTA 1 mM, pH 8-9 (optimum buffer), 37 C, 10-160 mM substrate

Substance: PaHyPRE (Pseudomonas aeruginosa PAO1)
- Km [1]: 15.9 mM
- Km [2]: 18.5 mM
